The source of these data is patent US20250171542A1 (ADEPT THERAPEUTICS, published 2025).

The target in test [1] is T1, cynomolgus PD-L1-His (Sino Biological, Cat. 90251-C08H) (cynomolgus, UniProt Q9NZQ7 19-238 (human entry)).
T1 construct: Bought protein; also called Cyno PD-L1; Cynomolgus PD-L1 ECD-His; not shown: His tag
Nature of the test: ELISA, coated cyno PD-L1-His. The procedure: Briefly, Maxisorp plates (Nunc) were coated with 100 ul/well of 0.5 μg/ml human PD-L1-His (Sino Biological, Cat #10084-H08H) or cynomolgus PD-L1-His (Sino Biological, Cat. 90251-C08H) protein diluted in 1×PBS (GIBCO) overnight at 4° C. Plates were washed three times with 300 μl/well washing buffer (1×PBST, diluted from 20×PBST (Thermo Scientific) with distilled water)) and then blocked with 300 μl/well of blocking buffer (1×PBST/I % BSA) for 2 hours at RT on shaker (100 rpm). Plates were washed and added with 100 μl/well of testing antibodies, which were serial diluted with assay buffer (PBST/1% BSA). The antibodies were incubated at room temperature for 2 hours on plate shaker at 100 rpm. Plates were washed. One hundred microliter of horseradish peroxidase (HRP) conjugated detection antibody was added into each well and incubated at room temperature for 1 hour on plate shaker at 100 rpm. Plates were washed and added with 100 μl/well TMB substrate for color development at room temperature in dark for up to 10 minutes. After addition of 50 μl/well of stop solution (1N H₂SO₄), plates were read at 450 nm on a plate reader (SpectraMax M5).
(§1) Anti-HEL isotype control (Biolntron) was used as negative control.

In test [2] the target is T2, rat PD-L1 (Sino Biological, Cat #80450-R08H) (rat, UniProt D4AE25 19-239).
T2 construct: not shown: The vendor's polyhistidine tag
T2 sequence (D4AE25 entry or part of it R08H R08H limits assumed): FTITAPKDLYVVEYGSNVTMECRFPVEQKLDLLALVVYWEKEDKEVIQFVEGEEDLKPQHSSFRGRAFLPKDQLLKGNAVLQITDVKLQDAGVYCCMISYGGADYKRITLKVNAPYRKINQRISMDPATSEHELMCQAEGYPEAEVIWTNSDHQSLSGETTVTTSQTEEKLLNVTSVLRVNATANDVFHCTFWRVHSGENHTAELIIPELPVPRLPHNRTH
Nature of the test: ELISA. (In general: In an ELISA, binding on a coated surface is turned into a signal by an enzyme label.)

The target in test [3] is T3, canine PD-L1 (Acro Biosystems, Cat #PDL-C52H4) (canine, UniProt E2RKZ5 19-236).
T3 construct: not shown: The vendor's tag, probably a polyhistidine tag
T3 sequence: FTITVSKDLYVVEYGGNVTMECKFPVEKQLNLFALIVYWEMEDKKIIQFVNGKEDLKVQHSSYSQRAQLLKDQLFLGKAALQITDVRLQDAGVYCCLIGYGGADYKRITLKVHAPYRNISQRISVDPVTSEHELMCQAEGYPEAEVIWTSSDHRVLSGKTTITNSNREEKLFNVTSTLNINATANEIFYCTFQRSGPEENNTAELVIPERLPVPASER
Nature of the test: ELISA.

The target of test [4] is T4, CD80 (Sino Biological, Cat #10698-H08H) (UniProt P33681 35-242).
T4 sequence (looked up): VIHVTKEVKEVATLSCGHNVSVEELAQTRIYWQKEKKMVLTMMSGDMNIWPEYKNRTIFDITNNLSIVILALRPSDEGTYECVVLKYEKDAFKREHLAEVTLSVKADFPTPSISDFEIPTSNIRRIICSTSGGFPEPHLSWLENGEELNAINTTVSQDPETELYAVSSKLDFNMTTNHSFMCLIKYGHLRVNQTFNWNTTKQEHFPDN
Nature of the test: ELISA.

In test [5] the target is mouse PD-L1 (Sino Biological, Cat #50010-M08H) (mouse, UniProt Q9EP73 19-238). Nature of the test: ELISA.
Chain of mouse PD-L1 (Sino Biological, Cat #50010-M08H) (Q9EP73 19-238 limits assumed, stated change not applied): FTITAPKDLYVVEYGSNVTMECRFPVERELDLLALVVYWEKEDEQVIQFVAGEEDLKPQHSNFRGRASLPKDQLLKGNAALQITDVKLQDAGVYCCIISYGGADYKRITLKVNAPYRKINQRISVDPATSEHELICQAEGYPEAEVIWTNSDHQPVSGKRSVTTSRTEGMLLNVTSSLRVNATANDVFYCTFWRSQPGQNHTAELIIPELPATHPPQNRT
The target of test [6] is T5, CD86 (Sino Biological, Cat #10699-H08H) (UniProt P42081 24-245).
T5 sequence (looked up): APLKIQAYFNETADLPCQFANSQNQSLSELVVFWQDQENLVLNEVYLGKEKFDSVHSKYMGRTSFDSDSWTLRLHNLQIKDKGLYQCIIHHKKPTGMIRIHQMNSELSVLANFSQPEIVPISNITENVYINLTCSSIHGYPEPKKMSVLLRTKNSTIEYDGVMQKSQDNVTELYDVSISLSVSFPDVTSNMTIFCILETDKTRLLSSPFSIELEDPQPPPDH
Nature of the test: ELISA.

Test [7] has as its target T6, BH-H2 (Sino Biological, Cat #11559-H08H) (UniProt O75144 19-258).
T6 sequence (looked up): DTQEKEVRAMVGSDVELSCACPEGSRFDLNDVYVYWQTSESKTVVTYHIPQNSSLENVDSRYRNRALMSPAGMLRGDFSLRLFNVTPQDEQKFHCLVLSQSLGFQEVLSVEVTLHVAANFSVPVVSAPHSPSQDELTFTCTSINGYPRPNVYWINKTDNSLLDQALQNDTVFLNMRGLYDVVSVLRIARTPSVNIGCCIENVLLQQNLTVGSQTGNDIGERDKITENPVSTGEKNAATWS
Nature of the test: ELISA.

The target of test [8] is T7, B7-H3 (Sino Biological, Cat #11188-H08H) (UniProt Q5ZPR3 29-461).
T7 sequence (looked up): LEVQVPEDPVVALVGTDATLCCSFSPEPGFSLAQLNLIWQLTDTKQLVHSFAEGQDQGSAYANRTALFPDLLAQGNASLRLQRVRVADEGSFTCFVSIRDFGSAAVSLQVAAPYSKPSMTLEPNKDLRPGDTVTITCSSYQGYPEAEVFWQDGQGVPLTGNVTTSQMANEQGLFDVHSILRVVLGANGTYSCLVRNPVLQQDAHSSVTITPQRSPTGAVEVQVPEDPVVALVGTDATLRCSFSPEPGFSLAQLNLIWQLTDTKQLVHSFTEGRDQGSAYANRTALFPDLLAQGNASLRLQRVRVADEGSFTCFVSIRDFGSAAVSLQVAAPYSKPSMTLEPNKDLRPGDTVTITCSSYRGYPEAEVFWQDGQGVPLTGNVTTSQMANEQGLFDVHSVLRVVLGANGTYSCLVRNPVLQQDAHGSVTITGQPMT
Nature of the test: ELISA.

Test [9] deals with T8, human PD-L1 expressed on cell surface (human, UniProt Q9NZQ7 19-290). Nature of the test: cell-based or functional assay.
T8 sequence (Q9NZQ7 19-290 limits assumed): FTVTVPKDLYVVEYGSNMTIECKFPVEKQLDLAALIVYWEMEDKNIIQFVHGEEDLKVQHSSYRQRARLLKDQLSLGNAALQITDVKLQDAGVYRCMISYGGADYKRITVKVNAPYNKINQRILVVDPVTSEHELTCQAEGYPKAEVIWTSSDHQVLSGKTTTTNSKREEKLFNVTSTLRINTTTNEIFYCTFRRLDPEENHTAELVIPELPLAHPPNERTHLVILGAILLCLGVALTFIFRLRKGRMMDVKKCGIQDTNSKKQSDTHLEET
The target in test [10] is T8, human PD-L1 expressed on cell surface. Nature of the test: flow cytometry, MDA-MB-231-GFP cells. The procedure: Cells were then resuspended in FACS buffer (1×DPBS/1% FBS) at 10⁶/ml concentration. One hundred microliter (100 μl) of cells were aliquoted into a single well in 96 well plates. The antibodies to be tested were serially diluted at 1:3 fold starting at 15 ug/mL and were then added into each well. The antibodies were mixed with cells and the mixtures were incubated on ice for 1 hour. […] After washing with FACS buffer, stained cells were resuspended at diluted […] (Biolegend, Cat #420404, used at 1:100 dilution) and analyzed on Guava 11HT (Luminex). Data was analyzed using Flowjo software.
as §1

T1 sequence (Q9NZQ7 other isoform, or with tags, fused parts or gaps C08H C08H limits assumed): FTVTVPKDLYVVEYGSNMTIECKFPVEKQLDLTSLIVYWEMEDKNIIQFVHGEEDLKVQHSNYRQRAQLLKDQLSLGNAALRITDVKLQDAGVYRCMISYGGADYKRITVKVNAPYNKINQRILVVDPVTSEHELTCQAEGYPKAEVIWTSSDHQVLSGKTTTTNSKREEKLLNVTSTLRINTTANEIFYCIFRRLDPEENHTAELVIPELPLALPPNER

B1: 56E5 (antibody, human IgG1, V domains shown)
VH: QEQLEESGGGLVQPEGSLTLTCTASGFSFSGDYYMSWVRQAPGKGLEWIASIYTGSLNTYYATWAKGRFTISLTSSTTVTLQMTSLTAADTATYFCARRHKNADYGHFDLWGPGTLVTVSS
VL: YDMTQTPGSVEVAVGGTVTIKCQASQSINDRLAWYQQTPGQPPKLLIYGASTLASGVPSRFKGSGSGTEFTLTISDLECADAATYYCQQGWTVSSLDNAFGGGTEVVAK
By EC50 is commonly meant the midpoint of the concentration-response curve. Low values mean an effect from little substance, high ones a need for much substance. As to B1, the EC50 in test [1] amounted to 0.0078 nM. For the same molecule, the binding result in test [2] was “no binding”. Besides, in test [3], the binding result is on record as “no binding”. In test [4], the binding result was “no binding”. Also, the binding result in [5] was “no binding”. In addition, the binding result in test [6] is listed as “no binding”. Also, the binding result in test [7] is “no binding”. For the same molecule, the binding result in test [8] is given as “no binding”. Further, in test [9], the “Internalization (%), FACS, 0.25 µg/ml, 2 h” value came to 22.9%; the “Internalization (%), FACS, 0.25 µg/ml, 4 h” value is 22.1%; the “Internalization (%), FACS, 0.5 µg/ml, 2 h” value is 20.7%; the “Internalization (%), FACS, 0.5 µg/ml, 4 h” value was determined as 19.8%. Moreover, in test [9], the “Internalization (%), FACS, 1 µg/ml, 2 h” value was determined as 23.8%; the “Internalization (%), FACS, 1 µg/ml, 4 h” value came to 20.6%; the “Internalization (%), FACS, 2 µg/ml, 2 h” value turned out to be 24.7%; the “Internalization (%), FACS, 2 µg/ml, 4 h” value came to 26.5%. Further, the half-maximal effective concentration (EC50) in test [10] was 1.29 nM.

B2: 62E6 (antibody, human IgG1, V domains shown)
VH: QEQLEESGGDLVKPEGSLTLTCTASGFSFSGDYYMSWVRQAPGKGLEWIASIYTGSLNIYYATWAKGRFTISLTSSTTVTLQMTSLTAADTATYFCARRNKNADYGHFDLWGPGTLVTVSS
VL: YDMTQTPASVEVAVGGTVTIKCQASQSINDRLAWYQQKPRQPPKLLIYGASTLASGVPSRFKGSGSGTEFTLTISDLECVDAATYYCQQGWTVSSLDNAFGGGTEVVAK
B2: the EC50 in test [1] was determined as 0.0188 nM. Also, in test [2], the binding result was “no binding”. Further, in test [3], the binding result is given as “no binding”. For the same molecule, in test [4], the binding result is listed as “no binding”. Further, in test [5], the binding result is “no binding”. Besides, the binding result in [6] was “no binding”. The binding result in test [7] is “no binding”. In addition, in [8], the binding result is “no binding”. Further, in test [9], the “Internalization (%), FACS, 0.25 µg/ml, 2 h” value is 22.3%; the “Internalization (%), FACS, 0.25 µg/ml, 4 h” value came out at 21%; the “Internalization (%), FACS, 0.5 µg/ml, 2 h” value is 12.2%; the “Internalization (%), FACS, 0.5 µg/ml, 4 h” value was found to be 24%. Also, in test [9], the “Internalization (%), FACS, 1 µg/ml, 2 h” value was 16.4%; the “Internalization (%), FACS, 1 µg/ml, 4 h” value is 17.7%; the “Internalization (%), FACS, 2 µg/ml, 2 h” value is 16.1%; the “Internalization (%), FACS, 2 µg/ml, 4 h” value amounted to 17.9%. Moreover, a half-maximal response in test [10] (EC50) required 2.03 nM.

B3: 57B10 (antibody, human IgG1, V domains shown)
VH: QEQLEESGGGLVQPEGSLTLTCTASGFSFSDDYYMSWVRQAPGKGLEWIASIYTGSLNTYYATWAKGRFTISLTSSTTVTLQMTSLTAADTATYFCARRNKNADWGHFDLWGPGTLVTVSS
VL: YDMTQTPASVEVAVGGTVTIKCQASQSISTALAWYQQKPGQPPKLLIYAASTLASGVPSRFRGSGSGTDFTLTISDLECADAATYYCQQGWTVSSLDNAFGGGTEVVAM
Molecule B3 returned a 50% effective concentration (EC50) in [1] of 0.0071 nM. For the same molecule, the binding result in [2] was “no binding”. The binding result in [3] was “no binding”. Moreover, the binding result in test [4] was “no binding”. In addition, in test [5], the binding result was “no binding”. For the same molecule, in [6], the binding result is reported as “no binding”. Also, the binding result in test [7] is “no binding”. In test [8], the binding result is “no binding”. Also, in test [9], the “Internalization (%), FACS, 0.25 µg/ml, 2 h” value is 19.3%; the “Internalization (%), FACS, 0.25 µg/ml, 4 h” value was 16.5%; the “Internalization (%), FACS, 0.5 µg/ml, 2 h” value is 11.1%; the “Internalization (%), FACS, 0.5 µg/ml, 4 h” value is 21.7%. In test [9], the “Internalization (%), FACS, 1 µg/ml, 2 h” value amounted to 12.7%; the “Internalization (%), FACS, 1 µg/ml, 4 h” value was 15.6%; the “Internalization (%), FACS, 2 µg/ml, 2 h” value is 19.2%; the “Internalization (%), FACS, 2 µg/ml, 4 h” value turned out to be 22.1%. This molecule displayed an EC50 in test [10] of 4.82 nM.

B4: 57F11 (antibody, human IgG1, V domains shown)
VH: QEHLEESGGGLVQPEGALTLTCTASGFSFSGDYYMSWVRQAPGKGLEWIASIYTGSLNTYYATWAKGRFTISIASSTTVTLQVTSLTAADTATYFCARRTKNGDYGYFDLWGPGTLVTVSS
VL: YDMTQTPASVEVAVGGTVTIKCQASQSINDRLAWYQQKPGQPPKLLIYAASTLASGVPSRFKGSGSGTEFTLTISDLECADAATYYCQQGWTVSSLENAFGGGTEVVAK
As to B4, the results for the EC50 in test [1] and in test [10] were 0.0138 nM and 1.24 nM, respectively. Also, the binding result in [2], in [3], in test [4], in test [5], in test [6] and in test [7] was “no binding” in each case. Besides, the binding result in test [8] is “no binding”. The “Internalization (%), FACS, 0.25 µg/ml, 2 h” value in test [9] turned out to be 17.9%. For the same molecule, the “Internalization (%), FACS, 0.25 µg/ml, 4 h” value in test [9] came out at 21.3%. Besides, the “Internalization (%), FACS, 0.5 µg/ml, 2 h” value in test [9] turned out to be 19.7%. In test [9], the “Internalization (%), FACS, 0.5 µg/ml, 4 h” value is 14.7%. Further, the “Internalization (%), FACS, 1 µg/ml, 2 h” value in [9] was 16.7%. For the same molecule, the “Internalization (%), FACS, 1 µg/ml, 4 h” value in test [9] was found to be 16.8%. The “Internalization (%), FACS, 2 µg/ml, 2 h” value in test [9] worked out at 14.5%. In addition, the “Internalization (%), FACS, 2 µg/ml, 4 h” value in test [9] amounted to 15.4%.
